Test results from publication PMC11291478, “Molecular and structural basis of an ATPase-nuclease dual-enzyme anti-phage defense complex” (Cell Research, 2024).
Values joined by “and” are separate entries in the source; they are usually repeats but may differ in a detail not shown here. Equal entries are not always repeated. Values belong to the compound of their own block, whether it stands above or below them.

Assays:
[1] = target: T1, DUF4297–HerA complex (Escherichia coli, UniProt A0ABF7PQ56); assay: cryo-EM structure; assay type: binding; conditions: with 59-bp dsDNA, 1 mM AMPPNP, 5 mM MgCl2; site at interface of RecA-like domains of adjacent HerA subunits; states 1 and 2
T1 construct: gene CG692_10950; co-expressed in E. coli BL21(DE3) from pET28a, His tag at N-terminus of DUF4297; about 1 MDa complex of 12 DUF4297 and 6 HerA; with DUF4297 domain-containing protein (dsDNA endonuclease Cap4-like domain-containing anti-phage protein)
T1 sequence (A0ABF7PQ56 1-571): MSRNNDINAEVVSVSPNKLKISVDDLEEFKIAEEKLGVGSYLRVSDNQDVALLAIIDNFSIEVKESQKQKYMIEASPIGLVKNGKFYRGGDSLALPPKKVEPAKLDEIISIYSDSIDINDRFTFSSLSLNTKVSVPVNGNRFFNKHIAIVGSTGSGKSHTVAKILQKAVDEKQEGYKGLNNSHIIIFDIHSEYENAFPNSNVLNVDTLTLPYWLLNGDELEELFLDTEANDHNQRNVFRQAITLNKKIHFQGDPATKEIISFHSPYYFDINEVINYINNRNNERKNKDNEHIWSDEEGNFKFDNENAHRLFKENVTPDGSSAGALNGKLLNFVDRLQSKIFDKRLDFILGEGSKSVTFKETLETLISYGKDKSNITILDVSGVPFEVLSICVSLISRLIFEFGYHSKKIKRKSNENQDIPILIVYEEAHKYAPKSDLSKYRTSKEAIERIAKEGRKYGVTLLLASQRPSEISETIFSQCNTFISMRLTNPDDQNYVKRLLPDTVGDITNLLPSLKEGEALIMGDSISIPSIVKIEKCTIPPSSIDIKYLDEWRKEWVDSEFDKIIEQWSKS
T1 sequence (A0ABF7PQ57 1-394 partner): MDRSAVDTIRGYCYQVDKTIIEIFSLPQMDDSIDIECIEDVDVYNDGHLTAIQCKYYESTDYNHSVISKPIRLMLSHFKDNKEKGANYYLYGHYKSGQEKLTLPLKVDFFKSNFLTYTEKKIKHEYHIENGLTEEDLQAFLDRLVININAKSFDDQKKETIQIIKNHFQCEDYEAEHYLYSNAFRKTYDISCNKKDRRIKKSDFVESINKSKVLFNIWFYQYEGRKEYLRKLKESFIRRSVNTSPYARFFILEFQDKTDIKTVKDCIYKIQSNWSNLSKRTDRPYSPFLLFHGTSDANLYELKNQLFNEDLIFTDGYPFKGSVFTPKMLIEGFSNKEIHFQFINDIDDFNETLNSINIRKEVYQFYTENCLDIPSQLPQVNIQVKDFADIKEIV

[2] = target: T1, DUF4297–HerA complex; assay: phosphate release, modified Baginski method; assay type: biochemical; conditions: 5 nM complex, 20 mM Tris-HCl pH 8.0, 50 mM NaCl, 5 mM MgCl2, 5 mM DTT, 37 °C
[3] = target: DUF4297; assay: AUC; sedimentation velocity, 55,000 rpm, 4 °C, ~1 mg/mL, 20 mM Tris-HCl pH 8.0, 500 mM NaCl
[4] = target: HerA; assay: cryo-EM structure; HerA alone, ~1.0 mg/mL, 3.14 Å
[5] = target: HerA; assay: cryo-EM structure; purified DUF4297–HerA complex with 1 mM AMPPNP, 5 mM MgCl2 and 59-bp dsDNA (1:1.2); state 1 at 2.73 Å and state 2 at 2.92 Å
[6] = target: DUF4297
[7] = target: HerA; assay: cryo-EM structure; co-expressed and purified DUF4297–HerA complex without nucleotide or DNA, ~1.0 mg/mL, C2 symmetry imposed, 2.87 Å
[8] = target: DUF4297; assay: as above

Compound: Nc1ncnc2c1ncn2[C@@H]1O[C@H](COP(=O)(O)OP(=O)(O)NP(=O)(O)O)[C@@H](O)[C@H]1O [AMPPNP]
cryo-EM structure [1]: three DNA-engaged subunits A–C bind ATP (AMPPNP in the structure)

Compound: Nc1ncnc2c1ncn2[C@@H]1O[C@H](COP(=O)(O)OP(=O)(O)OP(=O)(O)O)[C@@H](O)[C@H]1O [ATP]
phosphate release, modified Baginski method [2]: the DUF4297–HerA complex exhibits a high turnover rate under the same testing condition

stoichiometry N [3]: 2
Compound: DUF4297 (enzyme)

stoichiometry N [4]: 6 and 5 | stoichiometry N [5]: 6 | fold decrease in dsDNA nuclease activity of DUF4297 alone against the DUF4297–HerA complex [6]: 300 fold | stoichiometry N [7]: 6 | stoichiometry N (DUF4297 per HerA) [8]: 2
Compound: HerA (enzyme)
